# Experimental data as given in patent US20240327471A1, “IL-10 INDUCING POLYPEPTIDES AND USES THEREOF” (ENTEROME S.A., priority 2021, published 2024).
# Columns and labels:
# monocytes = experiment: IL-10 secretion from monocytes, NAT_29 sequence variants, co-stimulated with LPS (AlphaLISA); type: cell-based, human; conditions: 1 μM; LPS 100 ng/ml; 24 h; monocytes from six donors
# Description: In order to investigate the impact of different sequence variations of NAT_29, monocytes from six donors were obtained as described in Example 3 and stimulated with 1 μM NAT_29 polypeptide (SEQ ID NO: 1) or a sequence variant thereof containing eight mutations (NAT_38; SEQ ID NO: 9), co-stimulated with 100 ng/ml LPS (NAT_38 comparison) from E. coli O111: B4 (InvivoGen, tlrl-eblps) and placed in humidified CO2 incubator at 5% CO2/37° C. for 24 h. IL-10 secretion was measured at 24 hours by AlphaLISA® on cell supernatants according to the supplier's protocol and read on an Envision plate reader (Perkin Elmer).
# For comparison with NAT_29 (SEQ ID NO: 1), a polypeptide differing from the NAT_29 sequence by eight (8) amino acid positions was chosen (NAT_38; SEQ ID NO: 9). Namely, in SEQ ID NO: 9 • (i) 110 of SEQ ID NO: 1 is deleted, • (ii) D13 in SEQ ID NO: 1 is substituted with P (D13P), • (iii) a Q is added between R14 and G15 of SEQ ID NO: 1, • (iv) T16 in SEQ ID NO: 1 is substituted with Y (T16Y), • (v) K17 in SEQ ID NO: 1 is substituted with Q (K17Q), • (vi) S22 in SEQ ID NO: 1 is substituted with G (S22G), • (vii) an I is added between F25 and Y26 of SEQ ID NO: 1, and • (viii) P28 of SEQ ID NO: 1 is deleted.
# human PBMCs = experiment: Dose-response of purified microbiota proteins, IL-10 secretion from total PBMCs (AlphaLISA); type: cell-based; conditions: 24 hours
# Description: Before testing, the proteins were purified. In view thereof, CD14 depletion of PBMCs was not required, since the background induced by the residual contaminants present in the purified proteins is very low. Therefore, the cellular assays of Example 2 to characterize the purified proteins were performed on total PBMCs.
# The selected proteins, were tested at concentrations of 0.5, 0.25, 0.1 and 0.025 μM (final concentration) on PBMCs. Cells were seeded in 384 well plates at 72,000 cells/well in a final volume of […] and stimulated with either the purified proteins (10% vol/vol) or the relative controls (positive and negative) for 24 hours in a humidified 5% CO2 atmosphere at 37° C. Samples were tested in duplicate on at least two different PBMCs donors. All the dilutions were made in PBS.
# Secretion of IL-10 was measured by AlphaLISA and compared to those of PBS (negative control) and PHA at 10 μg/ml (positive control), essentially as described above.
# [1] = tested on: CD14 depleted human peripheral blood mononuclear cells (PBMCs); experiment: IL-10 screening of microbiota protein library on CD14-depleted PBMCs (AlphaLISA); type: cell-based; conditions: second round of cell-free synthesis, 72 hours
# Description: IL-10 screening of the microbiota protein library was performed on CD14 depleted human peripheral blood mononuclear cells (PBMCs). This cellular model was chosen to reduce the background due to cell wall components and other bacterial contaminants possibly present in the lysate of the Cell Free synthesis kit on the synthesised (but not purified) proteins.
# PBMCs were isolated from buffy coats as follows: 80 ml PBS were added to 50 ml blood; 4 SepMate™-50 IVD tubes (Stemcell Technologies, Vancouver, Canada) were filled with 15 mL of Ficoll® (Ficoll® Paque Plus; Sigma-Aldrich, St. Louis, USA) per donor, then 30 ml of PBS-diluted blood were gently added. Samples were centrifuged for 20 min at 1200 g at room temperature and washed three times with PBS. To lyse the red blood cells, pellets were resuspended in Red Blood Cells Lysis buffer 1X (Miltenyi Biotec, Bergisch Gladbach, Germany) and incubated for 10 min at room temperature. Cells were then washed with MACS buffer and counted.
# PBMC depletion was performed using the CD14 Microbeads kit (Miltenyi Biotec, Bergisch Gladbach, Germany) according to the supplier's protocol. […]
# IL-10 secretion was measured by AlphaLISA® (IL10 (human) AlphaLISA Detection Kit; PerkinElmer, Waltham MA, USA) on the undiluted supernatants according to the supplier's protocol. Results were expressed as AlphaLISA® signal (Counts). […]
Molecule,IL-10 secretagogue activity compared with NAT_29 (monocytes),"IL-10 secretion from PBMCs compared with PHA (positive control) (human PBMCs; 0.5, 0.25, 0.1 and 0.025 μM, PHA at 10 μg/ml)",IL-10 secretion from PBMCs at the lowest dose tested (human PBMCs; lowest dose 0.025 μM),IL-10 secretion from human PBMCs [1]
KKGSRSCFFYLPRQGYQKGSRGCFFIYL (NAT_38),IL-10 secretagogue activity was maintained,,,
"ID3166: microbiota protein, 121 amino acids, 14 kDa, SEQ ID NO: 2 (protein, ID3166) AFLFTSTGVPKKAAEAAFFLYLNKGTKKGSRSCFFIYLDRGTKKGSRSCFFYLPRQGYQKGSRGCFFIYLDRGTKKGSRGCFFIYLDCEKRAGNVCIRKCRGRYLHKKTPRRYRNAEATCS",,even more effective,very high effectivity even at the lowest dose tested,able to stimulate IL-10 secretion from human PBMCs
